Measurements published in patent publication US20200317758A1 (published 2020).

Assays:
[1] = biological target: T1, recombinant toxoid variant of the LukAB protein (LukA E323A) with poly-histidine and streptavidin binding … (UniProt Q2FFA2 31-351; P21224 30-338); assay: BLI; Step C (first mAb)
T1 chain 1: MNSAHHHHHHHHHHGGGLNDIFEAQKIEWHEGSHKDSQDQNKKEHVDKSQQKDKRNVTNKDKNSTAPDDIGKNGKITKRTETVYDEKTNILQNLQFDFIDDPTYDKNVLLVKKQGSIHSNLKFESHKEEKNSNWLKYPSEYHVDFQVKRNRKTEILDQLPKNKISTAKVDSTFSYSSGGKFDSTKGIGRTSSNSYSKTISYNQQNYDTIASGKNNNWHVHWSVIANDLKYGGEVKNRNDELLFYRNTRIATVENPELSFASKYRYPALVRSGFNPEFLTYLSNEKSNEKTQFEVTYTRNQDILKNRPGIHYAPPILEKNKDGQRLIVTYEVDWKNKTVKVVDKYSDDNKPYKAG
T1 chain 2: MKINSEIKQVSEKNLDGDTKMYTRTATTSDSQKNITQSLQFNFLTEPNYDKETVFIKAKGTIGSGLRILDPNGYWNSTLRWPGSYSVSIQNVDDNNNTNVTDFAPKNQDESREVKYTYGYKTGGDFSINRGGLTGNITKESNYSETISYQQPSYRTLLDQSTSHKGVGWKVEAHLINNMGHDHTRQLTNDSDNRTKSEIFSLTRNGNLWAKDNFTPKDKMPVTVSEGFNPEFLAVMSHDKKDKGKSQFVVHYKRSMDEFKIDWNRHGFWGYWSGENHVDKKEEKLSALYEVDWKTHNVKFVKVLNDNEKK

[2] = biological target: T1, recombinant toxoid variant of the LukAB …; assay: BLI; Step E (after SM1B245)
[3] = biological target: T1, recombinant toxoid variant of the LukAB …; assay: BLI; Step E (after SM1B249)
[4] = biological target: T2, recombinant derivative of the LukE protein (SEQ ID NO: 826) with amino-terminal poly-histidine affinity tag (UniProt Q2FXB0 24-306); assay: BLI; Step E (after SM1B332), left panel
T2 chain: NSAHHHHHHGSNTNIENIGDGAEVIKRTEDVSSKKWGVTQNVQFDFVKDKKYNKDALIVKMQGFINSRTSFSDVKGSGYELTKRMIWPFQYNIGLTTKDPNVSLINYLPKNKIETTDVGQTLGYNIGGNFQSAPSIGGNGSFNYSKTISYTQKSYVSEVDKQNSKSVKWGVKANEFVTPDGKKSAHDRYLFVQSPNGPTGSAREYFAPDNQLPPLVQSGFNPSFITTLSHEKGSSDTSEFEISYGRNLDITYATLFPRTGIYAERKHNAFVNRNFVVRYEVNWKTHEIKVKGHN

[5] = biological target: T2, recombinant derivative of the LukE …; assay: BLI; Step E (after SM1B332), right panel
[6] = biological target: T2, recombinant derivative of the LukE …; assay: BLI; Step C (first mAb), right panel
[7] = biological target: T2, recombinant derivative of the LukE …; assay: BLI; Step C (first mAb), left panel
[8] = biological target: T3, recombinant derivative of the LukD protein (SEQ ID NO: 824) with amino-terminal polyhistidine affinity tag, … (UniProt Q2FXB1 27-327, chemically biotinylated in vitro (sites not given)); assay: BLI; Step E (after SM1B221)
T3 chain: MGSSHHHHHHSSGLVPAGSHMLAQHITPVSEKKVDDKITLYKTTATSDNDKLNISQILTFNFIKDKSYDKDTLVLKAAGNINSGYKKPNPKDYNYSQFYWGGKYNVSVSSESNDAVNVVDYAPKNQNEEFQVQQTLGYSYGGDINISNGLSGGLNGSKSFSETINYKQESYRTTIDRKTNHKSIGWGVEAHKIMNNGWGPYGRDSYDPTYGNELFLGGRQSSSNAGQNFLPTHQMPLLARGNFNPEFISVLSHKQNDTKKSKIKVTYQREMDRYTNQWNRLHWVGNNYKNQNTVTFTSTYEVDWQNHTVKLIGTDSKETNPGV

Binder | Kd [2] [nM] | Kd [4] [nM] | Kd [5] [nM] | also measured
anti-LukAB mAb SM1B245 (antibody, V domains shown) VH: QVQLQQSGAELAKPGASVKMSCKSSGYTFSTYWMHWVKQRPGQGLEWIGYINPNTGYTEYNQKFKDTATLTADKSSSTAYMQLSSLTSEDSAVYYCARGGSKAFPYYAMDYWGQGTSVTVSS VL: DIVLTQSPASLAVSLGQRATMSCRASESVDGYGNSFLHWYQQKPGQPPKLLIYRASNLESGIPARFSGTGSRTDFTLTITPVEADDVATYYCQQSNGDPFTFGSGTKLEIKR | 11.5 | – | – | Kd [1]: 0.656 nM; Kd [3]: 1.31 nM
anti-LukE mAb SM1B332 (antibody, V domains shown) VH: QVQLKESGPGLVAPSQSLSITCTVSGLSLTSYGLSWVRQPPGKGLEWLGVIWGDGSTNYHSALISRLSISKDNSKSQVFLKLNSLQSDDTATYYCATRGDYGSYAMDYWGQGTSVTVSS VL: QIVLTQSPAIMSASPGEKVTLTCSASSSVSSSYLFWYQQKPGSSPKLWIYSTSNLASGVPVRFSGSGFGTSYSLTISRMEAEDAASYFCHQWSSYPPTFGAGTKLELKR | – | 4.9 | 4.9 | Kd [6]: 1.47 nM; Kd [7]: 1.38 nM
anti-LukAB mAb SM1B111 (antibody, V domains shown) VH: EVQLQQSGAELVKPGASVKISCKASGYAFSSSWMNWLKQRPGKGLEWIGRIYPGDGDTNYNGKFKGKATLTADKSSSTAYMQLSSLTSEDSAVYFCARYGYDYDGEYYYAMDYWGQGTSVTVSS VL: DIVMTQSPTTMAASPGERITITCSAHSNLISNYLHWYQQKPGFSPKLLIYRTSNLASGVPARFSGSGSGTSYSLTIGTMEAEDVATYFCQQGSSIPFTFGSGTKLEIKR | 4.53 | – | – | –
anti-LukE mAb SM1B318 (antibody, V domains shown) VH: QVQLQQSGAELMNPGASVKISCKSTGYKFSSYWIEWVKQRPGHGLEWMGEILPGSGSTNHNEKFKGKAIFTADASSNTAYMELSSLTSEDSAVYYCARTISTATDWFAYWGQGTLVTVSA VL: DVLMTQTPLSLPVSLGDQASISCRSSQTIVYSDGNTYLEWYLQKPGQSPKLLIYKVSNRFSGVPDRVSGSGSGTDFTLKISRVEAEDLGVYYCFQGSHVPYTFGGGTKLEIKR | – | 5.04 | – | –
anti-LukE mAb SM1B507 (antibody) heavy: EVQLQQSGAELVKPGASVKMSCKASGYTFTDYYMDWVKQSHGKSFEWIGHVNPYNGDTRYNQKFKGKATLTVDKSSTTAYMELNSLTSEDSAVYYCARGNFFDYWGQGTTLSVSSAKTTPPSVYPLAPGSAAQTNSMVTLGCLVKGYFPEPVTVTWNSGSLSSGVHTFPAVLESDLYTLSSSVTVPSSPRPSETVTCNVAHPASSTKVDKKIVPRDCGCKPCICTVPEVSSVFIFPPKPKDVLTITLTPKVTCVVVDISKDDPEVQFSWFVDDVEVHTAQTQPREEQFNSTFRSVSELPIMHQDWLNGKEFKCRVNSAAFPAPIEKTISKTKGRPKAPQVYTIPPPKEQMAKDKVSLTCMITDFFPEDITVEWQWNGQPAENYKNTQPIMNTNGSYFVYSKLNVQKSNWEAGNTFTCSVLHEGLHNHHTEKSLSHSPGK light: DIVMTQSPAIMSASPGEKVTIPCSASSSVSYMHWFQQKPGTSPKLWIYSTSNLASGVPGRFSGSGSGTSYSLTISRMEAEDAATYYCQQRSNYPLTFGAGTKLELKRADAAPTVSIFPPSSEQLTSGGASVVCFLNNFYPKDINVKWKIDGSERQNGVLNSWTDQDSKDSTYSMSSTLTLTKDEYERHNSYTCEATHKTSTSPIVKSFNRNEC | – | – | 3.52 | –
antibody SM1B225 (antibody, V domains shown) VH: EVQLQQSGGGLVKPGGSLKLSCAASGFTFSSYAMSWVRQTPEKRLEWVATITGGGTYTYYLDSVKGRFTISRDNAKTSLYLQMSSLRSEDTAMYYCARHRDGNYGCFDVWGAGTTVTVSS VL: DIVLTQSPAIMSASLGERVTMTCTASSSVSSSYLHWYQQKPGSSPKLWVYSTSNLASGVPARFSGSGSGSSYSLTISSMEPEDTATYYCHQYHRSPQTFGGGTKLEIKR | – | – | – | Kd [8]: 4.67 nM
